# Measurements taken from the RNAGym collection of RNA variant scans (doi:10.1073/pnas.2313332121).
# B1: TPR t1 (parent)
# chain: GACCAAUCUGCCCUCAGAGCUCGAGAACAUCUUCGGAUGCAGAGGAGGCAGGCUUCGGUGGCGCGAUAGCGCCAACGUCCUCAACCUCCAAUGCAUCCCACCACAUGAUGAUGCCUGAAGAGCCUUGGUUUUUUG
# Variants of: B1
# Experiment: polymerase ribozyme fitness, log enrichment relative to wild type (log ratio); higher = more active; in vitro selection for triplet polymerase activity
# Summary of the method: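 Genotype fitness is the logarithm of its enrichment divided by wild-type enrichment, using inverse-variance-weighted averages of replicates. That logarithm is base 2. Enrichment was measured by Illumina sequencing of input and output libraries from one triplicate in vitro selection round, with frozen incubation at −7 °C, on PCR-built, transcribed mutant libraries of each subunit of a heterodimeric triplet polymerase ribozyme, retaining genotypes with ≥10 input reads and ≥1 read per output.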
row,Variant,polymerase ribozyme fitness (log ratio)
1,GACCAAUCUGCCCACAGAGCUCGAGAACAUCUUCGUAUGCAGAGGCGGCAGGCUUCGGUGGCGCGAUAGCGCCAACGUCCUCAACCUCCAUUGCAUCCCACCACAUGAUGAUGGCUGAAGUACCUUGGUUUUUUG [U14A G36U A46C A91U C114G A121U G122A],-5.85
2,GACCAAUCUGCCCUCAGAGCUCGAGAACAUCUUCGCAUGCAGAGGAGGCAGGCUUCGGUGGCGCGAUAGCGCCAAUGUCCUCAACCUCCAAUGCAUCCCACCACAUGAUGAUGCCUGAAGAGUCUUGGUUUUUUG [G36C C76U C123U],-0.606
3,GACCAAUCUGCCCUCAGAGCUCGAGAACAUCUUCGGAUGCAGUGGAUGCAGGCUUCGGUGACGCGAUAGCGGCAACGUCCUCAACCUCCAAUGCAUUCCACCACAUGAUGAUGCCUGAAGAGCCUUGGUUUUUUG [A43U G47U G61A C72G C97U],-2.63
4,GACCAAUCUGCCCUCAGAGCUCGAGAACAUCUUCGGAUGCAGAGGAGGCAGGCUUCGGUGGCGCGAUAGCGACAACGUCCUCAACCUCCAAUGCAUCCCACCAAUUGAUGAUGCCUGAAAAGCCUUGGUUUUUUG [C72A C104A A105U G120A],-2.67
5,GACCAAUCUGCCCUCAGAGCUCGAGAACAUCUUCGGAUGCAGAGGAGGCAGGCUUCGGUGGGGCGAUAGCGCCAACGUCCUCAACCUCCAAUGCAUCCCACCACAUGAUGAUGCCUGAAAAGCCUUGGUUUUUUG [C62G G120A],-0.673
6,GACCAAUCUGCCCUCAGAGCUCGAGAACAUCGUCGGAUGCAGAGGAGGCAGGCUUCGGCGGCGCGAUAGCGCCAACGUCCUCAACCUCCAAUGCAUCCCACCACAUGAUGAAGCCUGAAGAUCCUUGGUUUUUUG [U32G U59C U112A G122U],-6.09
7,GACCAAUCUGCCCUCAGAGCUCGAGAACAUCUUCGGAUGCAGAGGAGGUAGGAUUCGGUGGCGCGAUAGCGCCAACGUCCUCAACCUCCAAUGCAUCCCACCACAUGAUGAUGCCUGAAGAGCCUUGGUUUUUUG [C49U C53A],-0.289
8,GACCAAUCUGCCAUCAGAGCUCGAGAACGUCUUCGGAUGCAGAGGAGGCAGGCUACGGUGGCGCGAUAGCGCCAAGGUCCUCAACCUCCAAUGCAUCCCAGAACAUGAUGACGCCUGAAGAGCCUUGGUUUUUUG [C13A A29G U55A C76G C101G C102A U112C],-8.04
9,GACCAAUGUGCCCUCAGAGCUCGAGAACAUCUUCGGAUGCAGAGGAGGCAGGCUUCGGUGUCGCGAUAGCGCCAACGUCCUCAACCUCCAAUGCAUCCCACCACAUGAUGAUGCCUGAAGAGCCUUGGUUUUUUG [C8G G61U],0.967
10,GACCAAUCUGCCCUCAGAGCUCGAGAACAUCUUCGGAUGCAGAGGAGGCAGACUUCGGUGGUGCGAUAGCGCCAACGUGCUCAACCUCCAAUGCAUCCCACCACAUGAUGAUGCCUGAAGAGCCUUGGUUUUUUG [G52A C62U C79G],-0.394
11,GACCAAUGUGCCCUCAGAGCUCGAGAACAUCUUCGGAUGCAGAGGAGGCAGGCUUCGGUAGCGCGAUAGCGCCAACGUCCUCAACCUCCAAUGCAUCCCACCACAUGAUGAUGCCUGAAGAGCCUUGGUUUUUUG [C8G G60A],0.62
12,GACCAAUCUGCCCUCAGAGCUUGAGAACAUCUUCGGAUGCAGAGGAGGCAGGCUUCGGUGGCGCGAUAGCGCCAACGUCCUCAACCUCCAAUGCAUCCCACCACAUGAUGAUCCCUGAAGAGCCUUGGUUUUUUG [C22U G113C],-6.59
13,GACCAAUCGGCCCUCAGAGCUCGAGAACAUCUUCGGAUGCAGAGGAGGCAGGCUUCGGUUGCGCGAUAGCGCCAACACCCUCAACCUCCAAUGCAUCACACCACAUGAUGAUCCCUGAAGAGCCUUGGUUUUUUG [U9G G60U G77A U78C C98A G113C],-5.81
14,GACCAAUCUGCCCUCAGAGCUCGAGAACAUCUUCGGAUGCAGAGGAGGCAGGCUUCGGUGGCGCGAUUCCGCCAACGUCCUCAACCUCCAAUGCAUCCCACCACAUGAUGAUGCCUGAAGCGCCUUGGUUUUUUG [A68U G69C A121C],-3.61
15,GACCAAUCUGGCCUCAGAGCUCGAGAACAUCUUCGGAUGCAGAGGAGGCAGGCUUCGGUGGCGCGAUAGCGCCAACGCCCUCAACCUCCCAUGCAUCCCACCACAUGAUGAUGCCUGAAGAGCCUUGGUUUUUUG [C11G U78C A90C],-0.723
16,GACCAAUCUGCCCUCAGAGCUCGAGAACAUCUUCGGAUGCAGAGGAGGCGGGCUUCGGUGGCGCGAUAGCGCUAACGUCCUCAACCUCCAAUGCAUCCCACCACAUGAUGAUGCCUGAAGAGCCUUGGUUUUUUG [A50G C73U],0.871
17,GACCAAUCUGCCCUCAGAGCUCGAGAACAUCUUCGGAUGCAGAGGAGGCAGGCUUCGGUGGCGCGAUAGAGCCAACGUCCUCAAACUCCAAUGCAUCCCACCACAUGAUGAUGCCUGAAGAGCCUUGGUUUUUUG [C70A C85A],-3.25
18,GACCAAUCUGCCCUCAGAGCUCGAGAACAUCUUCGGAUGCAGAGAAGGCAGGCUUCGGUGGCGCGAUAGCGCCAACGUGCUCAACCUCCAAUGCAUCCCACCACAUGAUGAUGCCUGAAGAGCCUUGGUUUUUUG [G45A C79G],-1.88
19,GACCAAUCUGCCCUCAGAGCUCGAGAACAUCUUCGGAUGCAGAGGAGGCAGGCUUCGGUGGCGCGAUAGCGCCAACGUCCUCAACCUCCAAUGCAUCCCACCACAUGAUGAUACCAGAAGAGCCUUGGUUUUUUG [G113A U116A],-4.71
20,GACCAAUCUGCCCUCAGAGCUCGAGAACAUCUUCGAAUGCAGAGGAGGCAGGCUUCGGUGGCGCGAUAGCGCCAACGUCCUCCACCUCCAAUGCAUCCCACCACAUGAUGAUGCCUGAAGAGCCUUGGUUUUUUG [G36A A83C],-1.41
21,GACCAAUCUGCCCUCAGAGCUCGAGAACAUCUUCGGAUGCAGAGGAGGCAGGCCUCGGUGGCGCGAUAGCUCCAACGUCCUCAACCUCCAAUGCAUGCCACCACAUGAUGAUGCCUGAAGAGUCUUGGUUUUUUG [U54C G71U C97G C123U],-4.02
